# Laboratory results as given in IntAct's records for PubMed 19103756.
# B1: Serine/threonine-protein kinase VRK1 (Homo sapiens), Q99986 (parent)
# chain: MPRVKAAQAGRQSSAKRHLAEQFAVGEIITDMAKKEWKVGLPIGQGGFGCIYLADMNSSESVGSDAPCVVKVEPSDNGPLFTELKFYQRAAKPEQIQKWIRTRKLKYLGVPKYWGSGLHDKNGKSYRFMIMDRFGSDLQKIYEANAKRFSRKTVLQLSLRILDILEYIHEHEYVHGDIKASNLLLNYKNPDQVYLVDYGLAYRYCPEGVHKEYKEDPKRCHDGTIEFTSIDAHNGVAPSRRGDLEILGYCMIQWLTGHLPWEDNLKDPKYVRDSKIRYRENIASLMDKCFPEKNKPGEIAKYMETVKLLDYTEKPLYENLRDILLQGLKAIGSKDDGKLDLSVVENGGLKAKTITKKRKKEIEESKEPGVEDTEWSNTQTEEAIQTRSRTRKRVQK
# Variants of: B1
# Details: with plk3_human PLK3, Q9H4B4
# plk3_human PLK3, Q9H4B4, sequence (Q9H4B4 whole entry, looked up): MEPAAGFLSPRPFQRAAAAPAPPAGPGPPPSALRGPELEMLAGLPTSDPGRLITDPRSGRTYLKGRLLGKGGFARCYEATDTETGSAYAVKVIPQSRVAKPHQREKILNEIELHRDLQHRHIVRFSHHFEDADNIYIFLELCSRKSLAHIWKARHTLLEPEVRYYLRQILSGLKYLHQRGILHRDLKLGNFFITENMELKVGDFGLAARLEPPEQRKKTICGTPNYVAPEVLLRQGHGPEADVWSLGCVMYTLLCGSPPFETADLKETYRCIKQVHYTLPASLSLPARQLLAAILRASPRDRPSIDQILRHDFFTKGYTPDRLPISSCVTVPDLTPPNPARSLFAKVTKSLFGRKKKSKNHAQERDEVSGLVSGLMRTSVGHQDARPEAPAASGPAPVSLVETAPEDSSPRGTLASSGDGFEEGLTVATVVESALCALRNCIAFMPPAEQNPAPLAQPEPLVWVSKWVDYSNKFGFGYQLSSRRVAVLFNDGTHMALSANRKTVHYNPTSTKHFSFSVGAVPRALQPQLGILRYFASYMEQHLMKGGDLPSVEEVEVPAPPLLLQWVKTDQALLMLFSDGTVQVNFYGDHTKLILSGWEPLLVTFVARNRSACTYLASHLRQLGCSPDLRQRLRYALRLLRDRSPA
row,Variant,effect of a mutation on the interaction
1,MPRVKAAQAGRQSSAKRHLAEQFAVGEIITDMAKKEWKVGLPIGQGGFGCIYLADMNSSESVGSDAPCVVKVEPSDNGPLFTELKFYQRAAKPEQIQKWIRTRKLKYLGVPKYWGSGLHDKNGKSYRFMIMDRFGSDLQKIYEANAKRFSRKTVLQLSLRILDILEYIHEHEYVHGDIKASNLLLNYKNPDQVYLVDYGLAYRYCPEGVHKEYKEDPKRCHDGTIEFTSIDAHNGVAPSRRGDLEILGYCMIQWLTGHLPWEDNLKDPKYVRDSKIRYRENIASLMDKCFPEKNKPGEIAKYMETVKLLDYTEKPLYENLRDILLQGLKAIGSKDDGKLDLAVVENGGLKAKTITKKRKKEIEESKEPGVEDTEWSNTQTEEAIQTRSRTRKRVQK [S342A],disrupting interaction
